Reference: publication PMC6643034

Assays:
[1] = biological target: CXC-motif chemokine ligand 10 (CXCL10) (human) (UniProt P02778)
P942 (Ixodes ricinus) = experiment: BLI; OctetRed; evasin held on a nickel-coated biosensor by its C-terminal His tag; titration with chemokine from 600 to 0.4 nM; noninteracting reference protein; fit R2 ≥0.96, at least five data points
P675 (Ixodes ricinus) = experiment: as above
[2] = biological target: P1126 (Amblyomma cajennense); experiment: as above
[3] = biological target: P1142 (Amblyomma cajennense); experiment: as above

Sequence of CXCL11 (O14625 22-94): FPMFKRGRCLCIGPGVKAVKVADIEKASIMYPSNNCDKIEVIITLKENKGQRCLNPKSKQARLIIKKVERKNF

Row | Substance | neutralization of human CXCL10-induced migration of activated human CD8+ T-cells (Transwell, EC80 dose of CXCL10, P1142 0.015–150 nM); mean IC50 of five biological replicates [1] | neutralization of human CXCL8-induced granulocyte migration (Transwell, EC80 dose of CXCL8, EVA3:S5 0.05–200 nM); mean IC50 of four biological replicates (CXCL8 (human)) | neutralization of human CXCL10-induced migration of activated human CD8+ T-cells (Transwell, EC80 dose of CXCL10, EVA3:S5 0.015–1000 nM); mean IC50 of five biological replicates [1] | Kd (P942 (Ixodes ricinus)) | Kd (P675 (Ixodes ricinus)) | Kd [2] | Kd [3] | target residence time [3]
1 | P1142 (natural protein) | 1.85e-09 M | – | – | – | – | – | – | –
2 | EVA3:S5 (from UniProt P0C8E8 70-86) | – | 3.23e-08 M | 3.11e-08 M | – | – | – | – | –
3 | CXCL11 (from UniProt O14625 22-94) (ligand) | – | – | – | < 20 nM | < 20 nM | > 300 nM | > 300 nM | –
4 | CXC-motif chemokine ligand 10 (CXCL10) (from UniProt P02778 22-98) | – | – | – | > 100 nM | > 100 nM | < 10 nM | < 10 nM | > 10 min
